# Experimental data reported in US20200277400A1.
# Columns and labels:
# meHER2(Hc-Lc):28ζ CAR [1] = experiment: flow cytometry, meditope-AF647 staining of lentivirally transduced primary human T cells; untransduced control 1.83%
# meHER2(Lc-Hc):28ζ CAR [2] = experiment: as above
# meHER2(Hc-Lc):28ζ CAR [3] = experiment: flow cytometry, T cells pre-bound to meditope peptide, then protein L; untransduced control 0.50%
# meHER2(Lc-Hc):28ζ CAR [4] = experiment: as above
# [5] = molecular target: Fab (meditope-binding Fab, not further named); experiment: method not stated
# meHER2(Hc-Lc):28ζ CAR [6] = experiment: flow cytometry, protein L staining of lentivirally transduced primary human T cells; untransduced control 13.16%
# meHER2(Hc-Lc):28ζ CAR [7] = experiment: flow cytometry, T cells pre-bound to meditope peptide, then protein L; untransduced control 0.63%
# meHER2(Lc-Hc):28ζ CAR [8] = experiment: as above
# meHER2(Hc-Lc):28ζ CAR [9] = experiment: flow cytometry, T cells pre-bound to meditope peptide, then protein L; untransduced control 7.23%
# meHER2(Lc-Hc):28ζ CAR [10] = experiment: as above
# Chain of meHER2(Hc-Lc):28ζ CAR (heavy, as listed by the source limits assumed, chain 1 of 2): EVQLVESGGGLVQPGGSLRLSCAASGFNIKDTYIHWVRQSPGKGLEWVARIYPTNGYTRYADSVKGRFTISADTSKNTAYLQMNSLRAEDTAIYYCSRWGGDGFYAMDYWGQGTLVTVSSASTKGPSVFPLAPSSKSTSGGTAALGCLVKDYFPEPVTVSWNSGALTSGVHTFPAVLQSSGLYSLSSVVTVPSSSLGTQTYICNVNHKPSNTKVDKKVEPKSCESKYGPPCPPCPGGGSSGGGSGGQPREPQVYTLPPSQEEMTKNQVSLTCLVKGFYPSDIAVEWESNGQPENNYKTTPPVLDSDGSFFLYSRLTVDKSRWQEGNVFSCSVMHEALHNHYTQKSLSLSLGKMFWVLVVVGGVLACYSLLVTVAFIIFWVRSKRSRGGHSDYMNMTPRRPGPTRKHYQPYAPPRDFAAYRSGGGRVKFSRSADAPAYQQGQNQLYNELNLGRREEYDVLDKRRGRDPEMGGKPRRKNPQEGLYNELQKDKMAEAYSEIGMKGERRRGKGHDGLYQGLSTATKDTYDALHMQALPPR
# Chain of meHER2(Hc-Lc):28ζ CAR (light, as listed by the source limits assumed, chain 2 of 2): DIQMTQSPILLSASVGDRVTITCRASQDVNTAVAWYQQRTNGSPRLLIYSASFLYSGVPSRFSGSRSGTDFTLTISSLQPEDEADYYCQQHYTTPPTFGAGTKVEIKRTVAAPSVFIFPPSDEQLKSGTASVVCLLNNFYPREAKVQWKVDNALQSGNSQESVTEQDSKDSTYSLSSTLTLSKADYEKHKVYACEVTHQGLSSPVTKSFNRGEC
# Chain of meHER2(Lc-Hc):28ζ CAR (heavy, as listed by the source limits assumed, chain 1 of 2): as the sequence (heavy, as listed by the source limits assumed, chain 1 of 2) above
# Chain of meHER2(Lc-Hc):28ζ CAR (light, as listed by the source limits assumed, chain 2 of 2): as the sequence (light, as listed by the source limits assumed, chain 2 of 2) above
substance,measurement,setting,value
meditope-AF647 (peptide),% of cells in the positive gate,meHER2(Hc-Lc):28ζ CAR [1],54.4%
same,% of cells in the positive gate,meHER2(Lc-Hc):28ζ CAR [2],57.1%
same,% of cells Meditope+ Protein L- (upper left quadrant),meHER2(Hc-Lc):28ζ CAR [3],2.6%
same,% of cells Meditope+ Protein L- (upper left quadrant),meHER2(Lc-Hc):28ζ CAR [4],2.09%
meditope-protein L fusion (MPL),estimated half-life of the complex,[5],> 80 days
protein L,% of cells in the positive gate,meHER2(Hc-Lc):28ζ CAR [6],51.8%
same,% of cells Meditope+ Protein L+ (upper right quadrant),meHER2(Hc-Lc):28ζ CAR [7],42.1%
same,% of cells Meditope+ Protein L+ (upper right quadrant),meHER2(Lc-Hc):28ζ CAR [8],43.1%
same,% of cells Meditope- Protein L+ (lower right quadrant),meHER2(Hc-Lc):28ζ CAR [9],4.04%
same,% of cells Meditope- Protein L+ (lower right quadrant),meHER2(Lc-Hc):28ζ CAR [10],16.1%
